Reference: the supplement of paper PMC7125110
± gives the standard error. Fewer inactive variants are shown than the library holds.

B1: glmS ribozyme (parent)
chain: AUAAAAGCGCCAGAACUACAGAAAUGUAGUUGACGAGGAGGAGGUUUAUCGAAUUUUCGGCGGAUGCCUCCAAA

How the values were obtained:
Conditions in all cases: with glucosamine-6-phosphate
[1] = variants of: B1; test: self-cleavage kobs at 160 uM GlcN6P; higher = faster cleavage; RNA array
How it was run: (§1)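 E. coli RNA polymerase transcribed barcoded ribozyme variants in situ on sequenced MiSeq chips, which were tracked via a hybridised Cy3 probe at 37 °C. Tiles were imaged over ~14 h after glucosamine-6-phosphate (40 μM to 10 mM) in HEPES/KCl/Mg(OAc)2 buffer was flowed in. Normalised per-tile medians were fit to one- or two-exponential decays for kobs, and kcat and KM came from weighted Michaelis–Menten fits.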

[2] = variants of: B1; test: self-cleavage kobs at 640 uM GlcN6P; higher = faster cleavage; RNA array
How it was run: as §1

[3] = variants of: B1; test: self-cleavage kobs at 2500 uM GlcN6P; higher = faster cleavage; RNA array
How it was run: as §1

[4] = variants of: B1; test: self-cleavage kobs at 10000 uM GlcN6P; higher = faster cleavage; RNA array
How it was run: as §1

| Variant | self-cleavage kobs at 160 uM GlcN6P [1] [s⁻¹] | self-cleavage kobs at 640 uM GlcN6P [2] [s⁻¹] | self-cleavage kobs at 2500 uM GlcN6P [3] [s⁻¹] | self-cleavage kobs at 10000 uM GlcN6P [4] [s⁻¹] |
| --- | --- | --- | --- | --- |
| G9A G32C C67U | < 1e-05 | < 1e-05 | – | – |
| G9A U30G G37U | < 1e-05 | – | – | – |
| G9C A14G G59U | < 1e-05 | – | – | – |
| C10A G13U A15G G40U U46G | < 1e-05 | < 1e-05 | < 1e-05 | – |
| C11G C67A C71G | 4.73e-05 ± 1.9e-05 | 0.000132 ± 3.5e-05 | 0.000135 ± 4.2e-05 | – |
| G13C A52G C70G | 0.000297 ± 0.00012 | 0.000164 ± 5.2e-05 | 7.21e-05 ± 3e-05 | – |
| G9U G13C G40A G44U G63U | < 1e-05 | < 1e-05 | < 1e-05 | – |
| C8G G21U C34A A64G | < 1e-05 | < 1e-05 | < 1e-05 | – |
| C10A G41C U46G C68U | < 1e-05 | < 1e-05 | < 1e-05 | – |
| G9A U31C G51U G59U C68G | < 1e-05 | – | – | – |
| C8U G63A | < 1e-05 | – | < 1e-05 | < 1e-05 |
| C10U U30C | < 1e-05 | – | < 1e-05 | – |
| C8U U56C | < 1e-05 | < 1e-05 | < 1e-05 | < 1e-05 |
| C10G U31A U49G | < 1e-05 | – | – | – |
| C10A C34U C50G G62U | 0.00045 ± 0.00013 | 0.000144 ± 4.8e-05 | 8.51e-05 ± 2.1e-05 | – |
| C8G A14G A15U G41C U47G U56A | < 1e-05 | < 1e-05 | < 1e-05 | – |
| C8A G60A C68A | < 1e-05 | – | < 1e-05 | – |
| A12G G35U A42C A48C U57C | < 1e-05 | – | – | – |
| C10A C50G U65G | 0.000143 ± 2.6e-05 | 0.000121 ± 4.2e-05 | 4.21e-05 ± 1.9e-05 | – |
| A12C G51U C58G C61A | < 1e-05 | – | – | – |
| C8G G66A | < 1e-05 | < 1e-05 | < 1e-05 | – |
| C10U U31A U49G G62U C68U | < 1e-05 | – | – | – |
| C11U U69A | 5.24e-05 ± 1.6e-05 | 0.000191 ± 5.6e-05 | 0.000157 ± 3.2e-05 | 6.31e-05 ± 1.7e-05 |
| C10U G13C C16G G32A | < 1e-05 | – | – | – |
| A12G G40U G62C | < 1e-05 | < 1e-05 | < 1e-05 | – |
| C10G C50G C67U | 9.87e-05 ± 2.3e-05 | – | 0.000267 ± 5.1e-05 | – |

| Variant | self-cleavage kobs at 160 uM GlcN6P [1] [s⁻¹] | self-cleavage kobs at 640 uM GlcN6P [2] [s⁻¹] | self-cleavage kobs at 2500 uM GlcN6P [3] [s⁻¹] | self-cleavage kobs at 10000 uM GlcN6P [4] [s⁻¹] |
| --- | --- | --- | --- | --- |
| G9U G40C G51A | < 1e-05 | < 1e-05 | < 1e-05 | – |
| C8G G51A U55G | < 1e-05 | < 1e-05 | – | – |
| G13A G35U G66U C67G | < 1e-05 | – | < 1e-05 | – |
| C11A G43U U49C C61A G63C | < 1e-05 | – | < 1e-05 | – |
| G9U G40A A52U | < 1e-05 | – | < 1e-05 | – |
| C10U G51A U55C | < 1e-05 | – | < 1e-05 | – |
| C10G G63C U65G | < 1e-05 | – | < 1e-05 | – |
| G9U A53C | < 1e-05 | < 1e-05 | – | < 1e-05 |
| A12U A15G A36U | < 1e-05 | – | – | – |
| G9C C10U G41A G43U | < 1e-05 | < 1e-05 | – | – |
| C8U C34G G41A | < 1e-05 | < 1e-05 | – | – |
| C11G U49G U57C | < 1e-05 | – | – | – |
| A12U G32A G37A U45A | < 1e-05 | – | – | – |
| A12U G41C A52U G59A G60U | < 1e-05 | – | < 1e-05 | – |
| A12G G13A U45C U49C C50A A52C A53U G66U | < 1e-05 | – | < 1e-05 | – |
| G9A C10U | < 1e-05 | < 1e-05 | < 1e-05 | < 1e-05 |
| G13C A36U | < 1e-05 | < 1e-05 | < 1e-05 | < 1e-05 |
| C10U C11U G13A | < 1e-05 | < 1e-05 | < 1e-05 | – |
| C8U G37C A39G | < 1e-05 | < 1e-05 | < 1e-05 | < 1e-05 |
| A12G A42U G59U G63C C71U | < 1e-05 | < 1e-05 | – | – |
| A12G G29A G41C | < 1e-05 | < 1e-05 | < 1e-05 | < 1e-05 |
| C10A U30G A48U | < 1e-05 | < 1e-05 | < 1e-05 | < 1e-05 |
| C8U A14C | < 1e-05 | < 1e-05 | < 1e-05 | < 1e-05 |
| C8A G9U C19A G29C C34A A48C | < 1e-05 | – | < 1e-05 | – |
| G9U G13C A42U | < 1e-05 | < 1e-05 | < 1e-05 | – |
| G9U G38A | < 1e-05 | < 1e-05 | – | – |

| Variant | self-cleavage kobs at 160 uM GlcN6P [1] [s⁻¹] | self-cleavage kobs at 640 uM GlcN6P [2] [s⁻¹] | self-cleavage kobs at 2500 uM GlcN6P [3] [s⁻¹] | self-cleavage kobs at 10000 uM GlcN6P [4] [s⁻¹] |
| --- | --- | --- | --- | --- |
| C11G G29U U69G | 0.000155 ± 3.5e-05 | 0.000133 ± 3.6e-05 | – | – |
| C11G G35A C58G | < 1e-05 | < 1e-05 | < 1e-05 | – |
| G9U A42G U46G | < 1e-05 | < 1e-05 | – | – |
| C8G C50A | < 1e-05 | – | < 1e-05 | < 1e-05 |
| A12G G35C | < 1e-05 | < 1e-05 | – | < 1e-05 |
| G9U G13A | < 1e-05 | < 1e-05 | – | < 1e-05 |
| C10G G32C A52U | < 1e-05 | < 1e-05 | < 1e-05 | – |
| C8A C34U G40A A52U | < 1e-05 | < 1e-05 | < 1e-05 | < 1e-05 |
| C10A A12U U46A | < 1e-05 | < 1e-05 | – | – |
| G13A C50G | 0.000122 ± 3.1e-05 | 0.000253 ± 0.00011 | 4.08e-05 ± 1.9e-05 | – |
| C8A C16U G29U G62A | < 1e-05 | < 1e-05 | – | – |
| G13A G40C C70G | < 1e-05 | < 1e-05 | < 1e-05 | < 1e-05 |
| G13A A64C | < 1e-05 | < 1e-05 | < 1e-05 | < 1e-05 |
| G13A C58G G59U | < 1e-05 | – | – | – |
| C11G U31G G44A U65C | < 1e-05 | < 1e-05 | < 1e-05 | – |
| C11U A15G C34U U57C C71A | < 1e-05 | < 1e-05 | < 1e-05 | – |
| C11U A12U C71A | 8.52e-05 ± 2.9e-05 | 0.000232 ± 4.5e-05 | 0.000457 ± 8.7e-05 | – |
| A12C G37U C50G U54G | 4.97e-05 ± 2.2e-05 | – | 9.24e-05 ± 3.8e-05 | – |
| C10U U49G | < 1e-05 | < 1e-05 | – | – |
| C8G A14U G66U | < 1e-05 | < 1e-05 | – | – |
| A12U U56G U57G C58A A64G | 5.96e-05 ± 2.1e-05 | 0.000137 ± 2.4e-05 | 5.56e-05 ± 2.7e-05 | – |
| G9A C34A G59C | < 1e-05 | < 1e-05 | < 1e-05 | – |
| G9C C11G C61G G63U | < 1e-05 | – | < 1e-05 | – |
| C10U G40U G66U C67U | < 1e-05 | – | < 1e-05 | – |
| G9A C50U G51U A52U | < 1e-05 | – | – | – |
| C10G G32C A48U C61G | < 1e-05 | < 1e-05 | – | – |

| Variant | self-cleavage kobs at 160 uM GlcN6P [1] [s⁻¹] | self-cleavage kobs at 640 uM GlcN6P [2] [s⁻¹] | self-cleavage kobs at 2500 uM GlcN6P [3] [s⁻¹] | self-cleavage kobs at 10000 uM GlcN6P [4] [s⁻¹] |
| --- | --- | --- | --- | --- |
| C10G G40A C70A | < 1e-05 | < 1e-05 | < 1e-05 | < 1e-05 |
| C11U C70G | 0.000313 ± 0.00014 | 9e-05 ± 9.9e-06 | 0.000104 ± 8.7e-06 | 6.56e-05 ± 5.5e-06 |
| G9U C16U G29A U45A U54C | < 1e-05 | – | – | – |
| C11G A15C A33C C34G U55C | < 1e-05 | < 1e-05 | – | – |
| G13A A39G C68A | < 1e-05 | – | – | – |
| C11G G13U U45C | < 1e-05 | – | – | – |
| G13U A15U G44A | < 1e-05 | < 1e-05 | < 1e-05 | – |
| A12U C34U A36U U55G | < 1e-05 | < 1e-05 | – | < 1e-05 |
| G13U C34A G40U C58A | < 1e-05 | < 1e-05 | – | – |
| G9U C68G | < 1e-05 | – | < 1e-05 | < 1e-05 |
| C8A G13C U30C G41U | < 1e-05 | – | < 1e-05 | < 1e-05 |
| G13C A48G C71U | < 1e-05 | – | – | – |
| G9U G40U U46G G62C | < 1e-05 | < 1e-05 | < 1e-05 | – |
| A12G G35U G51U C68G U69A | < 1e-05 | < 1e-05 | – | – |
| C8A G29C C50U | < 1e-05 | – | < 1e-05 | – |
| C11A C34U G60U C71A | < 1e-05 | – | < 1e-05 | – |
| C8G G9U G29C G32C A52C | < 1e-05 | – | < 1e-05 | – |
| C10G C34G G38A U47A | < 1e-05 | – | – | – |
| A12C U56C | 6.31e-05 ± 1.4e-05 | 0.000455 ± 8.2e-05 | 0.00111 ± 0.00017 | 0.00253 ± 0.00077 |
| A12C U65G | 0.000115 ± 2.1e-05 | 0.000543 ± 8.2e-05 | 0.00157 ± 0.00024 | – |
| G13A A42U | < 1e-05 | < 1e-05 | – | – |
| C11U U56A G66A | 4.3e-05 ± 1.4e-05 | 8.42e-05 ± 1.7e-05 | 0.000197 ± 4.1e-05 | – |
| G9C U56C C67U C71G | < 1e-05 | < 1e-05 | < 1e-05 | – |
